Laboratory results from PMC11548879.

How the values were obtained:
[1] = tested on: HpARI1 (Heligmosomoides polygyrus bakeri); assay: EMSA; details: pH 7.5, 30 min, room temperature
[2] = target: IL-33 (mouse) (mouse (endogenous in BALB/c mice and CMT-64 cells)) (UniProt Q8BVZ5)
UniProt Q8BVZ5, sequence (Q8BVZ5 whole entry): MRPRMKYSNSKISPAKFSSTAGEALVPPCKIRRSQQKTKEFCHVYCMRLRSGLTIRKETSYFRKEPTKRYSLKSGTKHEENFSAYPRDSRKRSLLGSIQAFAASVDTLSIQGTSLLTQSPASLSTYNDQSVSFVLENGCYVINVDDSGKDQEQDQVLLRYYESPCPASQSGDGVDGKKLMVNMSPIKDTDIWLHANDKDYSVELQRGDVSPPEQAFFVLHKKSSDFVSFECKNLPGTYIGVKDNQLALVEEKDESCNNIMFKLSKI

Row | Substance | IC50 of suppression of IL-5 production from bone marrow cells (IL-2, IL-7, freeze-thawed CMT-64 supernatants; IL-33-mediated ILC2 activation) [2] [ng/mL] | EC50 of amplification of IL-5 production from bone marrow cells (IL-2, IL-7, freeze-thawed CMT-64 supernatants; IL-33-mediated ILC2 activation) [2] [ng/mL] | other results
1 | AACTTTGCCATTGTGGAAGG / CCTTCCACAATGCCAAAGTT [IR700 EMSA oligonucleotide probe] |  |  | binding signal [1]: 50 % DNA bound
2 | HpARI2 (natural protein) | 1.9 |  | 
3 | HpARI2:3 fusion protein (CCP1 domain of HpARI2 fused to the CCP2+3 domains of HpARI3) |  | 21.5 | 
4 | HpARI3 (natural protein) |  | 1.2 | 
5 | HpARI3:2 fusion protein (CCP1 domain of HpARI3 fused to the CCP2+3 domains of HpARI2) | 1.1 |  | 
